{"source": "patent US20190225670A1", "about": "“COMPOUNDS AND METHODS FOR ACTIVATING TIE2 SIGNALING” (ASCLEPIX THERAPEUTICS, LLC, priority 2016, published 2019)", "molecules": {"B1": {"name": "Ang1: Tie2 ligand; binds Tie2 and stimulates phosphorylation and downstream signaling (protein)", "chain": "SNQRRSPENSGRRYNRIQHGQCAYTFILPEHDGNCRESTTDQYNTNALQRDAPHVEPDFSSQKLQHLEHVMENYTQWLQKLENYIVENMKSEMAQIQQNAVQNHTATMLEIGTSLLSQTAEQTRKLTDVETQVLNQTSRLEIQLLENSLSTYKLEKQLLQQTNEILKIHEKNSLLEHKILEMEGKHKEELDTLKEEKENLQGLVTRQTYIIQELEKQLNRATTNNSVLQKQQLELMDTVHNLVNLCTKEGVLLKGGKREEEKPFRDCADVYQAGFNKSGIYTIYINNMPEPKKVFCNMDVNGGGWTVIQHREDGSLDFQRGWKEYKMGFGNPSGEYWLGNEFIFAITSQRQYMLRIELMDWEGNRAYSQYDRFHIGNEKQNYRLYLKGHTGTAGKQSSLILHGADFSTKDADNDNCMCKCALMLTGGWWFDACGPSNLNGMFYTAGQNHGKLNGIKWHYFKGPSYSLRSTTMMIRPLDF"}, "B2": {"name": "Ang2: Tie2 ligand; endogenous Tie2 antagonist and weak agonist (protein)", "chain": "YNNFRKSMDSIGKKQYQVQHGSCSYTFLLPEMDNCRSSSSPYVSNAVQRDAPLEYDDSVQRLQVLENIMENNTQWLMKLENYIQDNMKKEMVEIQQNAVQNQTAVMIEIGTNLLNQTAEQTRKLTDVEAQVLNQTTRLELQLLEHSLSTNKLEKQILDQTSEINKLQDKNSFLEKKVLAMEDKHIIQLQSIKEEKDQLQVLVSKQNSIIEELEKKIVTATVNNSVLQKQQHDLMETVNNLLTMMSTSNSAKDPTVAKEEQISFRDCAEVFKSGHTTNGIYTLTFPNSTEEIKAYCDMEAGGGGWTIIQRREDGSVDFQRTWKEYKVGFGNPSGEYWLGNEFVSQLTNQQRYVLKIHLKDWEGNEAYSLYEHFYLSSEELNYRIHLKGLTGTAGKISSISQPGNDFSTKDGDNDKCICKCSQMLTGGWWFDACGPSNLNGMYYPQRQNTNKFNGIKWYYWKGSGYSLKATTMMIRPADF"}}, "key": {"[1]": {"test_system": "MEC monolayers", "test": "FITC Transwell permeability assay", "assay_type": "cell-based, human", "settings": "each agent alone", "experimental": "The integrity of these junctions is also important for the regulation of monolayer permeability by controlling the size of intercellular openings. The effect of the AXT107 on EC permeability was further investigated by the transendothelial diffusion of FITC-labeled dextran across MEC monolayers seeded onto permeable Transwell® substrates.\nTranswell, twenty-four-well inserts (Corning) were coated with 7.5 μg/cm^2 FN1 for two hours at 37° C., aspirated, and then dried for thirty minutes at room temperature. Wells were then seeded with 7.5×10^4 MECs in 100 μl of EBM-2 media (without phenol red) and allowed to settle for thirty minutes at room temperature. 1 ml of EGM-2 media was then added to the bottom chamber and an additional 200 μl to the top chamber. The plate was incubated for twenty-four hours at 37° C. after which the media was aspirated and an additional 7.5×10^4 MECs were plated in each well as described above. After forty-eight hours at 37° C., the media was aspirated from both chambers and the cells were washed twice in dPBS containing Ca^2+ and Mg^2+, once with EBM-2 media (without phenol red) and serum starved in EBM-2 media applied to both chambers for two hours at 37° C. After this incubation, 100 μM AXT107 or an equivalent amount of DMSO vehicle was added and incubated for an additional ninety minutes. In the top chamber, the cells were then treated with 200 ng/ml Ang2, 100 ng/ml VEGFA, both, or PBS control and in the bottom chamber, the cells were then treated with 25 μg/ml FITC-Dextran (40 kDa MW). AXT107 was also added in both chambers to maintain a concentration of 100 μM. After three hours, 10 μl was removed from the top chamber of each well and mixed with 90 μl of water in a clear bottom, 96-well plate. Fluorescence values for each sample were calculated using a Perkin Elmer plate reader."}, "[2]": {"test_system": "Tie2", "test": "Western blot of phospho-Tie2 (Y992) in MEC monolayers treated with AXT107 and angiopoietin", "assay_type": "cell-based, human", "settings": "ligand alone, no AXT107", "experimental": "A confluent monolayer of human microvascular endothelial cells (HMEC) was serum starved with EBM-2 overnight. After a 90 min treatment with AXT107 at concentrations of 0, 10, 32, and 100 μM, the cells were treated for 15 min with 1 mM sodium orthovanadate. Next the cells were treated with Angiopoietin-2 (Ang-2) at 200 ng/mL for 15 min. Following cell lysis, the lysates were immunoblotted for pTie2 (Y992), pSTAT3 (Y705), and pAkt (S473).\nTo investigate the effects of the integrin inhibitor AXT107 on Tie2 signaling, confluent monolayers of microvascular endothelial cells (MECs) on fibronectin-coated dishes were treated with various concentrations of AXT107 followed by exposure to the Tie2 ligands Ang1 or Ang2.\nFor Ang1/2 signaling investigations, cell culture dishes (10 cm diameter) were coated with 5 μg/ml fibronectin (FN1; Sigma-Aldrich, St. Louis, Mo.) for two hours at 37° C. The FN1 solution was then removed by aspiration and 5×10^6 microvascular endothelial cells (MECs; Lonza, Walkersville, Md.) were plated in EGM-2MV media (Lonza) and cultured for forty-eight hours at 37° C. The cells were then serum starved for sixteen hours in serum-free EGM-2 base media (Lonza). AXT107 (0-100 μM, as indicated) was subsequently added to each culture and incubated for seventy-five minutes at 37° C. The cultures were then treated with 1 mM sodium vanadate (New England Biolabs, Ipswich, Mass.) for fifteen minutes to enhance the phospho-Tie2 signal followed by stimulation with 200 ng/ml angiopoietin (R&D Systems, Minneapolis, Minn.) for an additional fifteen minutes. The cells were then transferred to ice, washed twice with ice cold Dulbecco's phosphate-buffered saline (dPBS) containing Ca^2+ and Mg^2+, and collected by scraping in 500 μl of 1×Blue Loading Buffer (Cell Signaling, Danvers, Mass.). Lysate samples were then sonicated, boiled, and resolved by SDS-PAGE. Specific proteins were identified by Western blot, using the following primary antibodies: Cell Signaling—phospho-Tie2 (Y992) (Cat#: 4221), Tie2 (Cat#: 7403), phospho-Stat3 (Y705) (Cat#: 4113), Stat3 (Cat#: 4904), phospho-Akt (S473) (Cat#: 4058), Akt (Cat#: 9272), phospho-p44/42 MAPK (T202/Y204) (Cat#: 4370), p44/42 MAPK (Cat#: 4695); BD Transduction Laboratories—β1 integrin (Cat#: 610467); Millipore—α5 integrin (Cat#: AB1928) and detected with HRP-conjugated goat anti-rabbit and sheep anti-mouse secondary antibodies (GE healthcare)."}}}
{"molecule": "VEGF", "values": [{"measurement": "FITC-dextran diffusion across the monolayer, single treatment", "setting": "[1]", "value": "appeared to increase permeability (although non-significantly)"}]}
{"molecule": "B1", "values": [{"measurement": "Tie2 phosphorylation by ligand alone", "setting": "[2]", "value": "induced phosphorylation"}]}
{"molecule": "B2", "values": [{"measurement": "Tie2 phosphorylation by ligand alone", "setting": "[2]", "value": "insignificant effects"}, {"measurement": "FITC-dextran diffusion across the monolayer, single treatment", "setting": "[1]", "value": "influenced FITC-dextran diffusion across the monolayer"}]}
